Series [1] concerns the target Flag-tagged CTC1 ΔB (human) (UniProt Q2NKJ3). As to the kind of experiment: co-IP.
The target in series [2] is CTC1 V259M;STN1;TEN1 (human?;human?;human?, UniProt Q2NKJ3;Q9H668;Q86WV5 1-1217;1-368;1-123, V259M||). As to the kind of experiment: EMSA.
Series [3] addresses CTC1 A227V;STN1;TEN1 (human?;human?;human?, UniProt Q2NKJ3;Q9H668;Q86WV5 1-1217;1-368;1-123, A227V||). As to the kind of experiment: EMSA. For orientation: Mobility shift assays separate free from complexed probe on a gel.

Myc-tagged TPP1, sequence (Q96AP0 whole entry): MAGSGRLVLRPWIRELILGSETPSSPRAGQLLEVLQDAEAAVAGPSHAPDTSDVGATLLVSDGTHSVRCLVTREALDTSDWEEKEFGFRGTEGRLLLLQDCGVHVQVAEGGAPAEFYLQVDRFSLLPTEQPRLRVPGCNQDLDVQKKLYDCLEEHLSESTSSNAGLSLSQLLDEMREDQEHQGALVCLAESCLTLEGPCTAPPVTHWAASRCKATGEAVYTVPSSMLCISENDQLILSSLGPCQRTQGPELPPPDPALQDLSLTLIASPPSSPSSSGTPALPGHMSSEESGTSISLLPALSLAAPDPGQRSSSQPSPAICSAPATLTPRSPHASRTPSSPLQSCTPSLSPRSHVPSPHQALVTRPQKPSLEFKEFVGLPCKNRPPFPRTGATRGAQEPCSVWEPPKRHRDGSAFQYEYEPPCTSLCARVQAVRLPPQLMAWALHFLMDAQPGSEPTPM
CTC1 V259M;STN1;TEN1, sequence (Q2NKJ3 whole entry V259M, chain 1 of 3): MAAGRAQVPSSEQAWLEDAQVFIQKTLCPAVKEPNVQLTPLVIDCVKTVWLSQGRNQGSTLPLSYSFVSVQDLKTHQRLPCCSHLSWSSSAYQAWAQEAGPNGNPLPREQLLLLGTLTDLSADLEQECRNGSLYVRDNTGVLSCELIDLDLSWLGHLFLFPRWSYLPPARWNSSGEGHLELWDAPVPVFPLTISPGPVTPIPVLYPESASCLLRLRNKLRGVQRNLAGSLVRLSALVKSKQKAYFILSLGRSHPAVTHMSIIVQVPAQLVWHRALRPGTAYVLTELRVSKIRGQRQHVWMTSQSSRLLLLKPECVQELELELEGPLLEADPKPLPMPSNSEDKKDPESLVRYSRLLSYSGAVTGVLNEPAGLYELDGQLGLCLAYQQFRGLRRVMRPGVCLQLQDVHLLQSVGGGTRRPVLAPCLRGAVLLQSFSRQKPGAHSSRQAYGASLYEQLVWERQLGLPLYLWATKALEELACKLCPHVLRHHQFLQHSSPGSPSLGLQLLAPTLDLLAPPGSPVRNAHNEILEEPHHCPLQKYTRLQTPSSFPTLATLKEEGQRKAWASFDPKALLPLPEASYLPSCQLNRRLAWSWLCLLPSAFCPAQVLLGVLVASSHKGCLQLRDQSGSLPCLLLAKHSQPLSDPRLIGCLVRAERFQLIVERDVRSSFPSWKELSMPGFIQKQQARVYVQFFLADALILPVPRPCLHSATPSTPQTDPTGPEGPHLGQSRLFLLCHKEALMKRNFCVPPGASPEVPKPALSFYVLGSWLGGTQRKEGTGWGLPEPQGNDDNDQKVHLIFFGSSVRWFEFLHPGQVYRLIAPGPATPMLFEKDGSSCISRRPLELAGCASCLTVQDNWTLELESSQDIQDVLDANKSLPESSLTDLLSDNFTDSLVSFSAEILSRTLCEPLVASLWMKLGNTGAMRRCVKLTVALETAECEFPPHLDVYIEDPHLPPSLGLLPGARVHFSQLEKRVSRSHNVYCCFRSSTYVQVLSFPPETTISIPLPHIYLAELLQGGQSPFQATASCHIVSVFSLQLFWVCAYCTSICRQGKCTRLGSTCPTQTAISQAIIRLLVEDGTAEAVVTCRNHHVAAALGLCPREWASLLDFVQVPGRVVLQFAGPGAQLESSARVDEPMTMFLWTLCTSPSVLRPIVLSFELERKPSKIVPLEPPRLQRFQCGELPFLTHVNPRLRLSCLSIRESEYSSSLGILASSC
CTC1 V259M;STN1;TEN1, sequence (Q9H668 whole entry, chain 2 of 3): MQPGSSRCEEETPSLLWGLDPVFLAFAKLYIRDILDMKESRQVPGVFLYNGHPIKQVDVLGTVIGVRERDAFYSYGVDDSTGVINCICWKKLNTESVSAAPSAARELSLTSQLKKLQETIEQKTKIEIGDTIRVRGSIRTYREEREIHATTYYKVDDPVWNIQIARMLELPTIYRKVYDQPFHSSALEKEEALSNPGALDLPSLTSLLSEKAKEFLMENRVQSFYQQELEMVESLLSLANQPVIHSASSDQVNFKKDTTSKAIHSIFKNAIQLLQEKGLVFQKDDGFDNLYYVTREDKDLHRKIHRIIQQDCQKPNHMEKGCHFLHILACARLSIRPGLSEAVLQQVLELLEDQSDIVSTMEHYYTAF
CTC1 V259M;STN1;TEN1, sequence (Q86WV5 whole entry, chain 3 of 3): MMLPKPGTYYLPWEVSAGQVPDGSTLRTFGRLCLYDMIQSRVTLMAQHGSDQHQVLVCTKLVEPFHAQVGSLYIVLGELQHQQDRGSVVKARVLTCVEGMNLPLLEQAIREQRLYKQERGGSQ
CTC1 A227V;STN1;TEN1, sequence (Q2NKJ3 whole entry A227V, chain 1 of 3): as the sequence (Q2NKJ3 whole entry V259M, chain 1 of 3) above, with A227V, M259V counted along it
CTC1 A227V;STN1;TEN1, sequence (Q9H668 whole entry, chain 2 of 3): as the sequence (Q9H668 whole entry, chain 2 of 3) above
CTC1 A227V;STN1;TEN1, sequence (Q86WV5 whole entry, chain 3 of 3): as the sequence (Q86WV5 whole entry, chain 3 of 3) above
Flag-tagged CTC1 ΔB (human), sequence (Q2NKJ3 whole entry, stated change not applied): as the sequence (Q2NKJ3 whole entry V259M, chain 1 of 3) above, with M259V counted along it

In series [1], “Myc-tagged TPP1 (from UniProt Q96AP0 1-458) (natural protein)” yielded a percent decrease of TPP1 co-immunoprecipitated, against WT CTC1 of 44%. With GGTTAGGGTTAGGGTTAG (ssDNA) [Tel-18 CY7], the binding result in series [2] and in series [3] was “binds” each time.

For the origin of these results see article PMC10250220.
